Laboratory results taken from article PMC3961177, “Photoactivated UVR8-COP1 Module Determines Photomorphogenic UV-B Signaling Output in Arabidopsis” (PLoS Genetics, 2014).
Values belong to the binder of their own block, whether it stands above or below them.

Experiments:
[1] = molecular target: T1, LexA fused wild-type UVR8 (UV … LOCUS 8) (Arabidopsis thaliana), Q9FN03; assay: SDS-PAGE of unboiled extracts with immunoblot; total protein extracts of yeast EGY48 expressing LexA-UVR8, kept on ice under −UV-B or +UV-B for 20 min, loaded without boiling, anti-LexA immunoblot; conditions: remark: other sources report otherwise
T1 chain: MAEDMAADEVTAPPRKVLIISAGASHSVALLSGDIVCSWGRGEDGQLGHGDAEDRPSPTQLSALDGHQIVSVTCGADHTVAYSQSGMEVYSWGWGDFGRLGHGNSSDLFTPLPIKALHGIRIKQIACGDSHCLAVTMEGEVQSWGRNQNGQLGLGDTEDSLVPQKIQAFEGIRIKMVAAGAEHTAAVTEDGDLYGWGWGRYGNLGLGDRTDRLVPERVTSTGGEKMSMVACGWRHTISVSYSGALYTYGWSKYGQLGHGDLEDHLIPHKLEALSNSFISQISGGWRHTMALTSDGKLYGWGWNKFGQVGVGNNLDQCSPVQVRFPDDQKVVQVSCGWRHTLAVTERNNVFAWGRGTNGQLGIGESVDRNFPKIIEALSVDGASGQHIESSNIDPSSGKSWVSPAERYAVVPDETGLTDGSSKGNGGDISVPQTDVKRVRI

[2] = molecular target: the molecule itself; assay: as above
[3] = molecular target: the molecule itself; assay: SDS-PAGE of unboiled extracts with immunoblot; total protein extracts of 4-day-old transgenic seedlings grown under −UV-B or +UV-B, extracts kept on ice under the same condition for 30 min, loaded without boiling, anti-GFP immunoblot
[4] = molecular target: T2, YFP-UVR8^WT (proUVR8-YFP-UVR8/uvr8-6) (Arabidopsis thaliana), Q9FN03; assay: as above; conditions: remark: other sources report otherwise
T2 chain: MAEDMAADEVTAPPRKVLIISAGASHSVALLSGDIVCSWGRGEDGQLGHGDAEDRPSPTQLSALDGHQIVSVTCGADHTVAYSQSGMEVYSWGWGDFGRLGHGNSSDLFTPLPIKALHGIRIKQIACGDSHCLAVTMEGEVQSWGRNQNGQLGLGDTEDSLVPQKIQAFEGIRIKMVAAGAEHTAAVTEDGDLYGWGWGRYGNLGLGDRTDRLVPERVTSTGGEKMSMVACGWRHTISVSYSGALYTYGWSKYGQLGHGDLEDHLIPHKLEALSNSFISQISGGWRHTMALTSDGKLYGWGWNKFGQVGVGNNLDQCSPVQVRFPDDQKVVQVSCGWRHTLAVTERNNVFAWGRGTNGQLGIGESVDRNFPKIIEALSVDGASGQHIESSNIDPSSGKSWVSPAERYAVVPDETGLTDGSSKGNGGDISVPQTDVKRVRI

B2: LexA fused UVR8^W285F (natural protein, Arabidopsis thaliana, UniProt Q9FN03 1-440, looked up)
chain: MAEDMAADEVTAPPRKVLIISAGASHSVALLSGDIVCSWGRGEDGQLGHGDAEDRPSPTQLSALDGHQIVSVTCGADHTVAYSQSGMEVYSWGWGDFGRLGHGNSSDLFTPLPIKALHGIRIKQIACGDSHCLAVTMEGEVQSWGRNQNGQLGLGDTEDSLVPQKIQAFEGIRIKMVAAGAEHTAAVTEDGDLYGWGWGRYGNLGLGDRTDRLVPERVTSTGGEKMSMVACGWRHTISVSYSGALYTYGWSKYGQLGHGDLEDHLIPHKLEALSNSFISQISGGFRHTMALTSDGKLYGWGWNKFGQVGVGNNLDQCSPVQVRFPDDQKVVQVSCGWRHTLAVTERNNVFAWGRGTNGQLGIGESVDRNFPKIIEALSVDGASGQHIESSNIDPSSGKSWVSPAERYAVVPDETGLTDGSSKGNGGDISVPQTDVKRVRI
notes: UV … LOCUS 8 (UVR8), Arabidopsis thaliana; also called mUVR8; source: yeast strain EGY48, LexA fusion; in total protein extract (dimer/monomer assay) and yeast two-hybrid fusion
stoichiometry N [2]: 2

B3: YFP-UVR8^W285F (proUVR8-YFP-UVR8^W285F/uvr8-6) (natural protein, Arabidopsis thaliana, UniProt Q9FN03 1-440, looked up)
chain: MAEDMAADEVTAPPRKVLIISAGASHSVALLSGDIVCSWGRGEDGQLGHGDAEDRPSPTQLSALDGHQIVSVTCGADHTVAYSQSGMEVYSWGWGDFGRLGHGNSSDLFTPLPIKALHGIRIKQIACGDSHCLAVTMEGEVQSWGRNQNGQLGLGDTEDSLVPQKIQAFEGIRIKMVAAGAEHTAAVTEDGDLYGWGWGRYGNLGLGDRTDRLVPERVTSTGGEKMSMVACGWRHTISVSYSGALYTYGWSKYGQLGHGDLEDHLIPHKLEALSNSFISQISGGFRHTMALTSDGKLYGWGWNKFGQVGVGNNLDQCSPVQVRFPDDQKVVQVSCGWRHTLAVTERNNVFAWGRGTNGQLGIGESVDRNFPKIIEALSVDGASGQHIESSNIDPSSGKSWVSPAERYAVVPDETGLTDGSSKGNGGDISVPQTDVKRVRI
notes: UV … LOCUS 8 (UVR8), Arabidopsis thaliana; The N-terminal place of YFP is read from the construct's name; source: transgenic Arabidopsis (native UVR8 promoter, uvr8-6 background), 4-day-old seedlings, in total protein extract; not shown: YFP, N-terminal, kept
stoichiometry N [3]: 2

More lines, now with the values ahead:

stoichiometry N [1]: 2
B1: LexA fused wild-type UVR8 (UV … LOCUS 8), Q9FN03 1-440 (natural protein)
chain: MAEDMAADEVTAPPRKVLIISAGASHSVALLSGDIVCSWGRGEDGQLGHGDAEDRPSPTQLSALDGHQIVSVTCGADHTVAYSQSGMEVYSWGWGDFGRLGHGNSSDLFTPLPIKALHGIRIKQIACGDSHCLAVTMEGEVQSWGRNQNGQLGLGDTEDSLVPQKIQAFEGIRIKMVAAGAEHTAAVTEDGDLYGWGWGRYGNLGLGDRTDRLVPERVTSTGGEKMSMVACGWRHTISVSYSGALYTYGWSKYGQLGHGDLEDHLIPHKLEALSNSFISQISGGWRHTMALTSDGKLYGWGWNKFGQVGVGNNLDQCSPVQVRFPDDQKVVQVSCGWRHTLAVTERNNVFAWGRGTNGQLGIGESVDRNFPKIIEALSVDGASGQHIESSNIDPSSGKSWVSPAERYAVVPDETGLTDGSSKGNGGDISVPQTDVKRVRI

stoichiometry N [4]: 2
B4: YFP-UVR8^WT (proUVR8-YFP-UVR8/uvr8-6), Q9FN03 1-440 (natural protein)
chain: MAEDMAADEVTAPPRKVLIISAGASHSVALLSGDIVCSWGRGEDGQLGHGDAEDRPSPTQLSALDGHQIVSVTCGADHTVAYSQSGMEVYSWGWGDFGRLGHGNSSDLFTPLPIKALHGIRIKQIACGDSHCLAVTMEGEVQSWGRNQNGQLGLGDTEDSLVPQKIQAFEGIRIKMVAAGAEHTAAVTEDGDLYGWGWGRYGNLGLGDRTDRLVPERVTSTGGEKMSMVACGWRHTISVSYSGALYTYGWSKYGQLGHGDLEDHLIPHKLEALSNSFISQISGGWRHTMALTSDGKLYGWGWNKFGQVGVGNNLDQCSPVQVRFPDDQKVVQVSCGWRHTLAVTERNNVFAWGRGTNGQLGIGESVDRNFPKIIEALSVDGASGQHIESSNIDPSSGKSWVSPAERYAVVPDETGLTDGSSKGNGGDISVPQTDVKRVRI
